Patent US20240317834A1, “COMPOSITIONS AND METHODS FOR NEUROLOGICAL DISEASES” (CODA BIOTHERAPEUTICS, INC., priority 2020, published 2024)

Tests used:
Lenti-X 293T cells = test: YFP fluorescence quenching anion reporter plate reader assay of engineered receptors stimulated with acetylcholine or a non-native ligand; format: cell-based
How it was run: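 Lenti-X 293T cells carrying a YFP anion reporter were transiently transfected with channel DNA and assayed the next day in HEPES-buffered ECS at pH 7.2. Ligand (acetylcholine or non-native ligand) was added in NaI-substituted ECS. Percent quench was the mean of the last 10 s relative to the 15 s pre-addition baseline.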

rat DRG neurons = test: Rheobase shift and evoked action potentials in rat DRG neurons (current clamp); format: cell-based
Procedure: Using whole cell manual patch clamp electrophysiology in HEK293 cells, rat DRG neurons and rat hippocampal neurons, the EC50 of the various engineered receptors disclosed herein to Ach and non-native ligands was measured using the Hill equation with peak current measurements from escalating doses of ligand. The rheobase shift was also measured in rat DRG neurons, which reflects the efficacy of the receptors. To calculate the rheobase, first, the amount of current that can produce an action potential was determined. Then the ligand was added, followed by a step wise increase in the current injected up to 700 pA.
For manual patch clamp experiments, Cells plated on coverslips were visualized at 10× and 40× on an inverted fluorescence microscope (Olympus). Recordings were made with an Axopatch 200B amplifier and Digidata 1550B (Molecular Devices) at RT using 3-6 MOhm glass patch electrodes (Sutter, BF150-86-10). Unless otherwise stated, recordings were made in extracellular solution (ECS) containing: 140 mM sodium chloride, 4 mM potassium chloride, 1 mM magnesium chloride, 2 mM calcium chloride, 10 mM HEPES, and 10 mM D-(+)-glucose (pH=7.3 with sodium hydroxide, osmolarity=305−315 mOsm). An 8-line reservoir (AutoMate Scientific) in combination with an 8-channel zero-dead-volume perfusion pencil (AutoMate Scientific) was used for perfusion. Data was acquired using pClamp software (Molecular Devices). Traces were either analyzed in Clampfit (Molecular Devices) or using custom Python code. Plotting and statistics were performed in GraphPad Prism.
DRG rheobase experiments were performed in current clamp mode using a potassium-based internal solution containing: 100 mM potassium D-gluconate, 28 mM potassium chloride, 1 mM magnesium chloride hexahydrate, 5 mM magnesium ATP, 10 mM HEPES, and 0.5 mM EGTA (pH=7.2 with potassium hydroxide, osmolarity=290-295 mOsm, calculated liquid junction potential=−13.5 mV). To measure DRG input resistance and rheobase, 500 ms current steps (−200 pA to 700 pA) were applied the membrane in the presence and absence of a compound. No holding current was applied to the membrane for cells included in the final datasets. Data were acquired at 10 kHz, with Bessel filter at 2 kHz and series resistance compensation at 100%. Rheobase was defined as the smallest depolarizing current injection required to cause an action potential to fire in the cell. In a subset of cells, the rheobase was ambiguous, since the action potential appeared to be graded in amplitude. In these cases, a […] of the trace clarified the rheobase. Input resistance was measured from the negative current injections, calculated as the difference in membrane potential at steady state divided by the current injection amplitude and then averaged across the four negative current steps for each recording. Resting membrane potential was measured from the first 100 ms of each sweep, averaged for each recording, and corrected for liquid junction potential. One-way ANOVA with multiple comparisons was used to test for significance of difference in rheobase and input resistance between baseline, drug, and wash conditions.

B1: CODA1025: engineered chimeric LGIC receptor, R101F, L131G in SEQ ID NO: 33 (protein)
chain: MRCSPGGVWLALAASLLHVSLQGEFQRKLYKELVKNYNPLERPVANDSQPLTVYFSLSLLQIMDVDEKNQVLTTNIWLQMSWTDHYLQWNVSEYPGVKTVFFPDGQIWKPDILLYNSADERFDATFHTNVGVNSSGHCQYLPPGIFKSSCPMDLKNFPMDVQTCKLKFGSWSYGGWSLDLQMQEADISGYIPNGEWDLVGIPGKRSERFYECCKEPYPDVTFTVTMRRRMGYYLIQMYIPSLLIVILSWISFWINMDAAPARVGLGITTVLTMTTQSSGSRASLPKVSYVKAIDIWMAVCLLFVFSALLEYAAVNFVSRQHKELLRFRRKRRHHKSPMLNLFQEDEAGEGRFNFSAYGMGPACLQAKDGISVKGANNSNTTNPPPAPSKSPEEMRKLFIQRAKKIDKISRIGFPMAFLIFNMFYWIIYKIVRREDVHNQ
modifications: synthetic sequence of chimeric LGIC
Lenti-X 293T cells; 1 nM CNL001, first column
  YFP fluorescence quenching using CNL001: −18.527%
Lenti-X 293T cells; 1 nM CNL001, second column
  YFP fluorescence quenching using CNL001: −21.577%
Lenti-X 293T cells; 1 nM brd
  YFP fluorescence quenching using TC-5619/Bradanicline: −10.61%
Lenti-X 293T cells; 3 nM brd
  YFP fluorescence quenching using TC-5619/Bradanicline: 2.63%
Lenti-X 293T cells; 3 nM var, first column
  YFP fluorescence quenching using Varenicline: 48.074
Lenti-X 293T cells; 3 nM var, second column
  YFP fluorescence quenching using Varenicline: 60.978
Lenti-X 293T cells; 10 nM CNL001, first column
  YFP fluorescence quenching using CNL001: 14.063%
Lenti-X 293T cells; 10 nM CNL001, second column
  YFP fluorescence quenching using CNL001: 49.818%
Lenti-X 293T cells; 10 nM brd
  YFP fluorescence quenching using TC-5619/Bradanicline: 17.71%
Lenti-X 293T cells; 30 nM brd
  YFP fluorescence quenching using TC-5619/Bradanicline: 68.48%
Lenti-X 293T cells; 30 nM fac
  YFP fluorescence quenching using Facinicline: −8.99
Lenti-X 293T cells; 30 nM var, first column
  YFP fluorescence quenching using Varenicline: 70.023
Lenti-X 293T cells; 30 nM var, second column
  YFP fluorescence quenching using Varenicline: 69.433
Lenti-X 293T cells; 50 nM CNL001, first column
  YFP fluorescence quenching using CNL001: 77.765%
Lenti-X 293T cells; 50 nM CNL001, second column
  YFP fluorescence quenching using CNL001: 79.23%
Lenti-X 293T cells; 50 nM abt
  YFP fluorescence quenching using ABT-126: −11.53%
Lenti-X 293T cells; 100 nM CNL001, first column
  YFP fluorescence quenching using CNL001: 80.544%
Lenti-X 293T cells; 100 nM CNL001, second column
  YFP fluorescence quenching using CNL001: 80.695%
Lenti-X 293T cells; 100 nM CNL002
  YFP fluorescence quenching using CNL002: 12.48%
Lenti-X 293T cells; 100 nM abt
  YFP fluorescence quenching using ABT-126: −7.61%
Lenti-X 293T cells; 100 nM azd0328
  YFP fluorescence quenching using AZD-0328: 6.26%
Lenti-X 293T cells; 300 nM abt
  YFP fluorescence quenching using ABT-126: 6.55%
Lenti-X 293T cells; 300 nM azd0328
  YFP fluorescence quenching using AZD-0328: 37.98%
Lenti-X 293T cells; 300 nM brd
  YFP fluorescence quenching using TC-5619/Bradanicline: 75.12%
Lenti-X 293T cells; 300 nM fac
  YFP fluorescence quenching using Facinicline: 10.21
Lenti-X 293T cells; 300 nM var, first column
  YFP fluorescence quenching using Varenicline: 78.989
Lenti-X 293T cells; 300 nM var, second column
  YFP fluorescence quenching using Varenicline: 79.21
Lenti-X 293T cells; 500 nM var, first column
  YFP fluorescence quenching using Varenicline: 79.212
Lenti-X 293T cells; 500 nM var, second column
  YFP fluorescence quenching using Varenicline: 79.771
Lenti-X 293T cells; 1 uM CNL001, first column
  YFP fluorescence quenching using CNL001: 81.191%
Lenti-X 293T cells; 1 uM CNL001, second column
  YFP fluorescence quenching using CNL001: 82.385%
Lenti-X 293T cells; 1 uM CNL002
  YFP fluorescence quenching using CNL002: 46.04%
Lenti-X 293T cells; 1 uM abt
  YFP fluorescence quenching using ABT-126: 25.08%
Lenti-X 293T cells; 1 uM tc6987
  YFP fluorescence quenching using TC-6987: −13.32
Lenti-X 293T cells; 1 uM var, first column
  YFP fluorescence quenching using Varenicline: 79.538
Lenti-X 293T cells; 1 uM var, second column
  YFP fluorescence quenching using Varenicline: 80.577
Lenti-X 293T cells; 10 uM tc6987
  YFP fluorescence quenching using TC-6987: 43.71
Lenti-X 293T cells; 30 uM CNL002
  YFP fluorescence quenching using CNL002: 39.82%
Lenti-X 293T cells; 30 uM azd0328
  YFP fluorescence quenching using AZD-0328: 79.31%
Lenti-X 293T cells; 30 uM fac
  YFP fluorescence quenching using Facinicline: 78.24
Lenti-X 293T cells; 500 uM tc6987
  YFP fluorescence quenching using TC-6987: 53.98
Lenti-X 293T cells; TC-6683 30 nM
  percent quench of YFP fluorescence, 30 nM TC-6683: −1.645%
Lenti-X 293T cells; TC-6683 300 nM
  percent quench of YFP fluorescence, 300 nM TC-6683: 3.043%
Lenti-X 293T cells; TC-6683 3 uM
  percent quench of YFP fluorescence, 3 uM TC-6683: 0.082%
Lenti-X 293T cells; TC-6683 30 uM
  percent quench of YFP fluorescence, 30 uM TC-6683: 2.449%
Lenti-X 293T cells; TC-6683 100 uM
  percent quench of YFP fluorescence, 100 uM TC-6683: 10.437%
Lenti-X 293T cells; acetylcholine 10 uM
  percent quench of YFP fluorescence, 10 uM ach: 12.57%
Lenti-X 293T cells; acetylcholine 50 uM
  percent quench of YFP fluorescence, 50 uM ach: −3.46%
Lenti-X 293T cells; acetylcholine 100 uM
  percent quench of YFP fluorescence, 100 uM ach: 12.65%
Lenti-X 293T cells; acetylcholine 300 uM
  percent quench of YFP fluorescence, 300 uM ach: −6.96%
Lenti-X 293T cells; acetylcholine 500 uM
  percent quench of YFP fluorescence, 500 uM ach: −6.77%
Lenti-X 293T cells; acetylcholine 1 mM
  percent quench of YFP fluorescence, 1 mM ach: 19.42%
Lenti-X 293T cells; acetylcholine 3 mM
  percent quench of YFP fluorescence, 3 mM ach: 65.06%
Rat DRG neurons; +TC-5619 @ EC90
  Rheobase Shift; Rat DRG Neurons, +TC-5619 @ EC90: 560 ± 72 pA
Rat DRG neurons; Baseline, no ligand
  Rheobase Shift; Rat DRG Neurons, Baseline: 140 ± 19 pA
